Measurements published in EP3083697B1.

Columns and labels:
[1] = biological target: ENO1 deletion mutant Δ1-297 (human) (UniProt P06733); test: ELISA, mutant protein coated, 10 microgram EN10 mAb
[2] = biological target: ENO1 deletion mutant Δ1-189 (human) (UniProt P06733); test: as above

- OD405 [1]: 1.56 OD405
- percent of the OD405 of wild type ENO1 [1]: 39%
- OD405 [2]: 1.43 OD405
- percent of the OD405 of wild type ENO1 [2]: 42%
B1: EN10 mAb (antibody, V domains shown)
VH: EVQLQQSGPELVKPGASVKMSCKASGYTFTSCVMNWVKQKPGQGLEWIGYINPYNDGTKYNEKFKGKATLTSDKSSSTAYMELSSLTSEDSAVYYCAREGFYYGNFDNWGQGTTLTVSS
VL: DIQMTQSPASLSASVGETVTITCRASENIYSYLTWYQQKQGKSPQLLVYNAKTLPEGVPSRFSGSGSGTQFSLKINSLQPEDFGSYYCQHHYGTPYTFGGGTKLEITR
